Source: patent US20240279318A1 (NANJING LEGEND BIOTECH, published 2024)
Numbering of substitutions follows the chain as printed.

B1: AS170036 VL1VH1-56N98F108A (scFv)
scFv: QSALTQPRSVSGSPGQSVTISCAGTSSDVGSENYVSWYQQHPGKAPKLMIYQVNKRASGVPDRFSGSKSGNTASLTISGLQAEDEADYYCASYRSSDFNIVFGGGTKLTVLGGGGSGGGGSGGGGSEVQLVESGGGLVQPGGSLRLSCAASGFTFSSYAMSWVRQAPGKGLEWVSTINSGTNSPYYADSVKGRFTISRDNSKNTLYLQMNSLRAEDTAVYYCAKNFFDGSWFLAPPAMDYWGQGTLVTVSSHHHHHH
notes: also called 49-AS170036 VL1VH1-56N98F108A
B2: AS170036 VL1VH1-56N98I108S (scFv)
scFv: B1 scFv with F98I, A234S
notes: also called 54-AS170036 VL1VH1-56N98I108S
B3: AS170036 VL1VH1-56Y98Q108S (scFv)
scFv: B1 scFv with F98Q, N182Y, A234S
notes: also called 48-AS170036 VL1VH1-56Y98Q108S
B4: AS170036 VL1VH1-56Y98F108D (scFv)
scFv: B1 scFv with N182Y, A234D
notes: also called 41-AS170036 VL1VH1-56Y98F108D
B5: AS170036 VL1VH1-56Y98F108S (scFv)
scFv: B1 scFv with N182Y, A234S
notes: also called 42-AS170036 VL1VH1-56Y98F108S
B6: AS170036 VL1VH1-56N98Q108S (scFv)
scFv: B1 scFv with F98Q, A234S
notes: also called 57-AS170036 VL1VH1-56N98Q108S
B7: AS170036 VL1VH1-56Y98I108D (scFv)
scFv: B1 scFv with F98I, N182Y, A234D
notes: also called 44-AS170036 VL1VH1-56Y98I108D
B8: AS170036 VL1VH1-56Y98I108S (scFv)
scFv: B1 scFv with F98I, N182Y, A234S
notes: also called 45-AS170036 VL1VH1-56Y98I108S
B9: AS170036 VL1VH1-56N98I108A (scFv)
scFv: B1 scFv with F98I
notes: also called 52-AS170036 VL1VH1-56N98I108A
B10: AS170036 VL1VH1-57H98F108S (scFv)
scFv: B1 scFv with N182G, S183H, A234S
notes: also called 60-AS170036 VL1VH1-57H98F108S
B11: AS170036 VL1VH1-56N98F108D (scFv)
scFv: B1 scFv with A234D
notes: also called 50-AS170036 VL1VH1-56N98F108D
B12: AS170036 VL1VH1-56N98F108S (scFv)
scFv: B1 scFv with A234S
notes: also called 51-AS170036 VL1VH1-56N98F108S
B13: AS170036 VL1VH1-57H98F108A (scFv)
scFv: B1 scFv with N182G, S183H
notes: also called 58-AS170036 VL1VH1-57H98F108A
B14: AS170036 VL1VH1-56N98Q108A (scFv)
scFv: B1 scFv with F98Q
notes: also called 55-AS170036 VL1VH1-56N98Q108A
B15: AS170036 VL1VH1-56N98I108D (scFv)
scFv: B1 scFv with F98I, A234D
notes: also called 53-AS170036 VL1VH1-56N98I108D
B16: AS170036 VL1VH1-56N98Q108D (scFv)
scFv: B1 scFv with F98Q, A234D
notes: also called 56-AS170036 VL1VH1-56N98Q108D
B17: AS170036 VL1VH1-57H98I108A (scFv)
scFv: B1 scFv with F98I, N182G, S183H
notes: also called 61-AS170036 VL1VH1-57H98I108A
B18: AS170036 VL1VH1-56Y98I108A (scFv)
scFv: B1 scFv with F98I, N182Y
notes: also called 43-AS170036 VL1VH1-56Y98I108A
B19: AS170036 VL1VH1-56Y98Q108A (scFv)
scFv: B1 scFv with F98Q, N182Y
notes: also called 46-AS170036 VL1VH1-56Y98Q108A
B20: AS170036 VL1VH1-56Y98Q108D (scFv)
scFv: B1 scFv with F98Q, N182Y, A234D
notes: also called 47-AS170036 VL1VH1-56Y98Q108D
B21: AS170036 VL1VH1-56Y98F108A (scFv)
scFv: B1 scFv with N182Y
notes: also called 40-AS170036 VL1VH1-56Y98F108A
B22: AS170036 VL1VH1-57H98F108D (scFv)
scFv: B1 scFv with N182G, S183H, A234D
notes: also called 59-AS170036 VL1VH1-57H98F108D
B23: HP58Q (scFv)
scFv: B1 scFv with F98H, N182G, P184Q, A234G
notes: AS170036 VL1VH1 scFv mutein
B24: HP110S (scFv)
scFv: B1 scFv with F98H, N182G, A234G, P236S
notes: AS170036 VL1VH1 scFv mutein
B25: HP58G (scFv)
scFv: B1 scFv with F98H, N182G, P184G, A234G
notes: AS170036 VL1VH1 scFv mutein
B26: HS57K (scFv)
scFv: B1 scFv with F98H, N182G, S183K, A234G
notes: AS170036 VL1VH1 scFv mutein; also called AS170036 VL1VH1-VHS57K
B27: HS57R (scFv)
scFv: B1 scFv with F98H, N182G, S183R, A234G
notes: AS170036 VL1VH1 scFv mutein; also called AS170036 VL1VH1-VHS57R
B28: HP110Q (scFv)
scFv: B1 scFv with F98H, N182G, A234G, P236Q
notes: AS170036 VL1VH1 scFv mutein
B29: HP110V (scFv)
scFv: B1 scFv with F98H, N182G, A234G, P236V
notes: AS170036 VL1VH1 scFv mutein
B30: HP110T (scFv)
scFv: B1 scFv with F98H, N182G, A234G, P236T
notes: AS170036 VL1VH1 scFv mutein
B31: HS57F (scFv)
scFv: B1 scFv with F98H, N182G, S183F, A234G
notes: AS170036 VL1VH1 scFv mutein
B32: HP110D (scFv)
scFv: B1 scFv with F98H, N182G, A234G, P236D
notes: AS170036 VL1VH1 scFv mutein
B33: HS57D (scFv)
scFv: B1 scFv with F98H, N182G, S183D, A234G
notes: AS170036 VL1VH1 scFv mutein
B34: HP110E (scFv)
scFv: B1 scFv with F98H, N182G, A234G, P236E
notes: AS170036 VL1VH1 scFv mutein
B35: HP110G (scFv)
scFv: B1 scFv with F98H, N182G, A234G, P236G
notes: AS170036 VL1VH1 scFv mutein
B36: HS57W (scFv)
scFv: B1 scFv with F98H, N182G, S183W, A234G
notes: AS170036 VL1VH1 scFv mutein
B37: HS57H (scFv)
scFv: B1 scFv with F98H, N182G, S183H, A234G
notes: AS170036 VL1VH1 scFv mutein; also called AS170036 VL1VH1-VHS57H
B38: HS57Q (scFv)
scFv: B1 scFv with F98H, N182G, S183Q, A234G
notes: AS170036 VL1VH1 scFv mutein; also called AS170036 VL1VH1-VHS57Q
B39: HS57Y (scFv)
scFv: B1 scFv with F98H, N182G, S183Y, A234G
notes: AS170036 VL1VH1 scFv mutein
B40: HP110A (scFv)
scFv: B1 scFv with F98H, N182G, A234G, P236A
notes: AS170036 VL1VH1 scFv mutein
B41: HP58E (scFv)
scFv: B1 scFv with F98H, N182G, P184E, A234G
notes: AS170036 VL1VH1 scFv mutein
B42: HS57M (scFv)
scFv: B1 scFv with F98H, N182G, S183M, A234G
notes: AS170036 VL1VH1 scFv mutein; also called AS170036 VL1VH1-VHS57M
B43: HS57N (scFv)
scFv: B1 scFv with F98H, N182G, S183N, A234G
notes: AS170036 VL1VH1 scFv mutein
B44: HS57T (scFv)
scFv: B1 scFv with F98H, N182G, S183T, A234G
notes: AS170036 VL1VH1 scFv mutein
B45: HS57A (scFv)
scFv: B1 scFv with F98H, N182G, S183A, A234G
notes: AS170036 VL1VH1 scFv mutein

The binders below were run against T1, AFP158/HLA-A*02:01 complex (human) (assay: SPR, fold vs AS170036 VL1VH1;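 further: crude scFv muteins immobilised on a sensor chip, peptide–MHC complex passed over at several concentrations, binding then buffer-driven dissociation, KD estimated from on- and off-rates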).
T1 construct: flowed as analyte in SPR
Procedure: (§1) The experiment was carried out as follows. The crude scFv protein were captured onto the sensorchip. Different concentrations (320, 160, 40 nM) of AFP158/HLA-A*02:01 complex flowed over the sensorchip surface, and were allowed to bind the antibody fragment for 100 s followed by injection of the running buffer to allow dissociation of the complex. On-rate (kd) and off-rate (kd) were calculated based on association and dissociation curve, and were used to estimate the equilibrium dissociation constant (KD).
(§2) The crude scFv muteins were then subjected to SPR affinity measurement by the method mentioned above.

| Affinity increase | Binder |
| --- | --- |
| 41.7 fold | B1 |
| 22.3 fold | B2 |
| 67.4 fold | B3 |
| 110 fold | B4 |
| 56.3 fold | B5 |
| 20.8 fold | B6 |
| 152 fold | B7 |
| 81.5 fold | B8 |
| 62 fold | B9 |
| 66.2 fold | B10 |
| 36.4 fold | B11 |
| 17.6 fold | B12 |
| 146 fold | B13 |
| 54.1 fold | B14 |
| 44.4 fold | B15 |
| 39.1 fold | B16 |
| 67.6 fold | B17 |
| 212 fold | B18 |
| 183 fold | B19 |
| 122 fold | B20 |
| 142 fold | B21 |
| 124 fold | B22 |

Each binder was assayed against T2, AFP158/HLA-A*02:01 complex (human) (assay: SPR, KD ratio to AS170036 VL1VH1;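 further: crude scFv captured on a sensor chip, peptide–HLA complex passed over at several concentrations, association then buffer dissociation, KD derived from on- and off-rates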).
T2 construct: flowed over the chip in SPR; also called AFP158 pro
Procedure: as §1

| Affinity increase | Binder |
| --- | --- |
| 0.5 fold | B23 |
| 0.8 fold | B24 |
| 0.9 fold | B25 |
| 4.4 fold | B26 |
| 2.8 fold | B27 |
| 0.9 fold | B28 |
| 0.6 fold | B29 |
| 1.3 fold | B30 |
| 1.4 fold | B31 |
| 0.5 fold | B32 |
| 1.2 fold | B33 |
| 1.8 fold | B34 |
| 1 fold | B35 |
| 0.6 fold | B36 |
| 6.9 fold | B37 |
| 2.4 fold | B38 |
| 1.2 fold | B39 |
| 1.3 fold | B40 |
| 0.5 fold | B41 |
| 2.7 fold | B42 |
| 1.5 fold | B43 |
| 1.1 fold | B44 |
| 1.2 fold | B45 |

What follows are binders tested against T1, AFP158/HLA-A*02:01 complex (assay: SPR, crude scFv captured, pMHC analyte;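 further: complex injected at several concentrations over the chip, association phase then running buffer for dissociation, KD derived from on- and off-rates computed from both curves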).
Procedure: as §1, §2

| Kd | koff | kon | Binder |
| --- | --- | --- | --- |
| 0.0054 µM | 0.0015 s⁻¹ | 270000 M⁻¹ s⁻¹ | B1 |
| 0.01 µM | 0.0019 s⁻¹ | 190000 M⁻¹ s⁻¹ | B2 |
| 0.0033 µM | 0.00055 s⁻¹ | 160000 M⁻¹ s⁻¹ | B3 |
| 0.002 µM | 0.00054 s⁻¹ | 270000 M⁻¹ s⁻¹ | B4 |
| 0.004 µM | 0.00074 s⁻¹ | 190000 M⁻¹ s⁻¹ | B5 |
| 0.011 µM | 0.0019 s⁻¹ | 180000 M⁻¹ s⁻¹ | B6 |
| 0.0015 µM | 0.00038 s⁻¹ | 260000 M⁻¹ s⁻¹ | B7 |
| 0.0028 µM | 0.0005 s⁻¹ | 180000 M⁻¹ s⁻¹ | B8 |
| 0.0036 µM | 0.00093 s⁻¹ | 260000 M⁻¹ s⁻¹ | B9 |
| 0.0034 µM | 0.00068 s⁻¹ | 200000 M⁻¹ s⁻¹ | B10 |
| 0.0062 µM | 0.0019 s⁻¹ | 310000 M⁻¹ s⁻¹ | B11 |
| 0.013 µM | 0.0028 s⁻¹ | 210000 M⁻¹ s⁻¹ | B12 |
| 0.0015 µM | 0.0004 s⁻¹ | 260000 M⁻¹ s⁻¹ | B13 |
| 0.0042 µM | 0.001 s⁻¹ | 240000 M⁻¹ s⁻¹ | B14 |
| 0.0051 µM | 0.0014 s⁻¹ | 280000 M⁻¹ s⁻¹ | B15 |
| 0.0058 µM | 0.0015 s⁻¹ | 260000 M⁻¹ s⁻¹ | B16 |
| 0.0033 µM | 0.00076 s⁻¹ | 230000 M⁻¹ s⁻¹ | B17 |
| 0.0011 µM | 0.00025 s⁻¹ | 240000 M⁻¹ s⁻¹ | B18 |
| 0.0012 µM | 0.00028 s⁻¹ | 230000 M⁻¹ s⁻¹ | B19 |
| 0.0018 µM | 0.00044 s⁻¹ | 240000 M⁻¹ s⁻¹ | B20 |
| 0.0016 µM | 0.00038 s⁻¹ | 240000 M⁻¹ s⁻¹ | B21 |
| 0.0018 µM | 0.00053 s⁻¹ | 290000 M⁻¹ s⁻¹ | B22 |

These binders were tested against T2, AFP158/HLA-A*02:01 complex (assay: SPR, scFv captured, pMHC in flow;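 further: complex injected at several concentrations over crude scFv, association then running-buffer dissociation, KD estimated from kinetic on- and off-rate constants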).
Procedure: as §1

| Kd | Binder |
| --- | --- |
| 0.5 µM | B23 |
| 0.3 µM | B24 |
| 0.32 µM | B25 |
| 0.056 µM | B26 |
| 0.088 µM | B27 |
| 0.3 µM | B28 |
| 0.4 µM | B29 |
| 0.18 µM | B30 |
| 0.18 µM | B31 |
| 0.54 µM | B32 |
| 0.2 µM | B33 |
| 0.15 µM | B34 |
| 0.26 µM | B35 |
| 0.38 µM | B36 |
| 0.035 µM | B37 |
| 0.1 µM | B38 |
| 0.2 µM | B39 |
| 0.21 µM | B40 |
| 0.6 µM | B41 |
| 0.09 µM | B42 |
| 0.17 µM | B43 |
| 0.22 µM | B44 |
| 0.21 µM | B45 |
